Measured values from the domain aggregation screens of Martell et al. (2025).

Experiment: soluble fraction after stress (log2 fold change); higher = more stays soluble; pooled small domains, quantitative proteomics
Conditions: stress: 50 degC
Procedure, shortened: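 After stress at 50°C, the amount of each protein still soluble was measured. This was done on pooled custom libraries of small protein domains, using high-throughput quantitative proteomics. The figure given is a base-two log fold change and stands for aggregation propensity, with higher values meaning more protein stays in solution.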

Sequence | soluble fraction (log2)
HMDINEIILKVASEKKTFKTSDVLEALDNNYTKQHVSALISAMVKKGILVKAGSTAKSTYALPENASLL | -0.264
HMDKKEFGKRLKNLRIRNKMSQQAMADSLGYTSRSTINKIEEGINEMSYDKIVRLMELYGLSRPDLGLEPI | -0.154
HMGIVAPGTLKHLHAVGNSYYPDWETKRHELVTAVTKGRTSSSKELYEAEANRLITRIEELLMTAAQSV | -0.0132
HMNAKVVAPIPGTVLSIDIKVGDVIKIGDRLLVLEAMKMENNIASEKSGTVTAVHVKVGQQVLQNELMIEL | -1.39
HMQLKKDTILSYIEEKLIDSYNSNKGFTTQEISVALNMQRTNVSAILNNLVKENKLVKTKGKPVRYFLSG | -0.708
HMAVNQEFKNTINRIKYEYSLNQSQIADRLGVKKTYLSDMINGRVPYNETMNKKVNDVFPLPP | 0.11
HMGSQQIEEGMRRLVASGALRPGASVPSVRDLARDLQVNPATVVRAYQRLVDAGLLVVRRGEGTFVAE | -0.588
HMSLTEDELFHALTIYANREGINIGATELKYLLTHYARNLGKLIELINQVSQAATMQKKPITIPLIKHS | -0.428
HMTIRPEDVELVPAEDGYMQGDVVSNIFKGVHYELEVKANGYDWMVHTTKYVEVGSHVGIKVIPFNIQV | -0.0208
HMSELDASYLGQRVRYVSGFTETDPSEGLVEFRGSNWRARAEHPPLDHSGHWVIVKVESNTLWVEEKSN | -0.22
HMFEKVKLTLTIPSKYSGSTYSALRNRMNKFSKEEWLSNGDLKIEIEVTGGQKTDIYTLINKLTNGEAIIE | -0.141
HMIDELNVGDIRFYLNRYGKEIQIEIIRIGDDGSVYARTMADNALFRVPEARLKNIGEKVPAEEVQRG | -0.742
HMATPIAGTKYTLNNTPVYGTEKGPSIGKRSGIYYTWDATVRNGRIRMTNSPARVGVPWQVSFWVEVNKL | -0.533
HMKGKDLQDAVVTVVGGAENWNAIRAWAQASASDSEKREINAAFQSGKLMATMMAERLALAYQQSG | -0.0897
HMTRVDALDQLAAIRFSSHIFAEDQDLRMVVVDGQRIGEGDIVRDEIRLEQITETGVIFEYQGERFPIDV | -1.42
HMTNVVSKNKAKEIAMNIINDTVLQGQTAATFKEIVKANGVYVVKIEIQGQEYTSYITKDGKIVFPYGVEV | -0.451
HMLKRLTVEFSAEMPKKMTSEQKEELASVLSEDPRPAYQNDENREYGLDYGEFSVKFKVKDGVLTVTSVTE | -0.0668
HMLMRKAEVGVESLNLRHGPGTQYKVLEILPGGKSLHYLAEPRRGWVRVTTEEGTTGWTFLKFLKPE | -1.96
HMVAGPDEPLSDREQGVLDLLAEGLSNKAISKQLGISVATVKSHLSNIYGKLQAENRMQAVARARELGLM | ≥ 0.62
HMRTLSAGVAGRLRADILNGLLEPGRRLGMAELTERYGAGMSPVREALSRLVGEGLVQSEGQRGFRVA | -0.0944
HMSFDENEALRKALDVFWEKGYDGTSLSDLTEAMGINKPSLYATFGNKDQLFLKAIEMYENR | -0.992
HMDKSPVLQLNRDVPAGQQISADDFRTVEIGADGAFRSVPSSDLNAMVGSYAKVRLIAGTLLAREALQSG | 0.0412
HMEALGLSPRQVDVLRLLVEGRSNKMIMRELELSESTVKTHLQAIFRRLGVSSRTQAVVAAARLGL | -1.25
HMDLSLQTFNELKTELTNNKITIDQFSEKINEFDITSDIFEISRELFLDDTLSLEDYLVVIENVLIN | -0.45
HMGIAKLLTEQEYKIALLAAERRTNAMIAEEMNLTENTVKTHLKHIFDKVGIAGNAKNKRHLLADMMNSER | -0.277

Sequence | soluble fraction (log2)
HMNELIGVEQLQDLREAIADHGFAEQRVLNWLYQATKGQVSRLEQLPLPMLTTLHKKLGQWADAEAAASSA | -0.0602
HMDNIPAHIKAKIINYVNRNYPGAIIKDIERKSNGRYEAEIVYNNREYDLLFDAQGNFISASLDDK | 0.123
HMRFEWFDTLTDREKEIFGLIATGFDNQQIADRLQLAEQTVRNNISTIYSKLEVKDRFEIIRLANTI | -0.706
HMSFPDTYFKGNKVIGLSYNDLKKFLNNAGYSKFDEEVEEWGEKRVSIEDDMVDFYLEDDKVVSI | -0.233
HMRTMFGQRLRLARKRAGLSMQALADRVTPSVSAQAISKYEADQMMPSSSVLVGLGKALGVSLDFLVGGQ | -0.536
HMKFIPPSLEEARAYFVEKGSSEPEAEKFVNHFDSIGWKVGRARTPMKKWKSAANNWIANNREWNQ | -0.407
HMNNQVTFSKFLNEVEDGRVVEVNIQGNNITGVLSDGSKFKTFSPNYPNLVEKLSEKGVSINASPL | 0.1
HMLKLSGEESQQLALRLREELARRRITRQGLADAAKISISTLEQVLAGRRTFTLATIVRLEEGLGIKLL | -1.89
HMIETIIGAEGKVLETIDNFNQKGVVALAGKEWTARSADASIIPEGAKVSVVEISGVKLIVTQN | 0.067
HMFDDEELDTFAGRQSDSYDQQEVEQFSDVLHTMRQDEVQAWWRSLTLRGISLPDELKDEVIML | -0.538
HMFPDLSPEQQRIVDVLTKSNDLQLNQLSVKTGIPIGDITSILFQMEMMGVVKPMAGGNYHLL | -1.36
HMHSGFHSAILDVDRAVKEGKTLYEALNKYPYIFDETFRSLVRAGEASGELPSILSKLALYLEEQSK | -1.16
HMGPAVGAIRVEGNKRVEPETVRTYLTFNVGDPYDLAKVDESLKALFATGLFQDVRIRREGNTVVIVVVEN | -0.368
HMGLVQQSAQKSDDAAKLMAANNLNAAQSKYQLPDEAEKDFFTFAFERGYAVEDFVDAGLVDKIMADFSA | -0.078
HMFGNTGETSGTGVAFTRSPVDGENKIFGEFLVNAQGEDVVAGIRTPQPISEMEQAFPEVYSKFESVAEIL | 0.0862
HMDVPNLVGEEIKDVRRTLRHFQLEVIGEGSKIVSQVPKHGQRLPENTTIRVYLN | 0.155
HMEAFDYLGRRTRDLLERQGWTTVPLVRDAYLAVPGGERLLQVPGFGRKSLREVRRWLWLQIGDPRFE | -1.36
HMNLGNLAYESKVTKQVLNMIRPLHPEYSSDDITRAVKEILSEEGSRQRRVDEIARGALDVLMGNPR | 0.216
HMNVAVPTPADKRKVRVMKADINAKLRVNDANGAYAVYEELKEWVTLKGFTEWNDDLSKLSETMGSMKRKV | -0.0289
HMQQFGANVRLIRKARQMSIKQLSELSGVSQTMISEVERGLKIPTIDVAGKIAAALGIDLTNLMG | -0.465
HMGPIITKTYNLSYATARDVNDIIKSKKSARGDIVIDTRTNSLIVSDVQEKIDLIDEIVATL | -0.27
HMEESEMIAFATVAHRIVGKPVEAVMRSYRNRDNIPADIAAIVSSKFTFSVTMAEASYRNPKKSYQVNSII | -0.00943
HMNLGLTGDPSVLYSILLQRGDSSRADLQRQTGWSLSKTTLVLNQLLAQKLIVQVGAGRSTQYRVIN | -0.983
HMRRTEKEIEQDVMRAIATIISEKGISSVTIKEVSNLSKTDVIVLERRFKNDEGLIKAYTSQ | -0.166
HMNYKDQISRYFQQAFHIYPKYQTMKNEEGNFTSKIFKDDKMIIEGVGKSKKKAEQDVSRKALIHFNVL | -0.262

Sequence | soluble fraction (log2)
HMIMVAGHLQIKKGKYYMVLELKSESGERKTKWISTGLSAKGNKRKAEAMLEEARENYQSTDA | -0.899
HMDRRDEYHQHLLRLLLSGEIRDKDELQRRKVKLSGEYGLAGVPKNSETLALVPPDRLPEVLDILR | 0.065
HMEAAETAVVTGTIVNIRSGPTLDFEAFAQVKQGDRLPVLDKFYNWYYVKLPSGVNGWISGQLVRIEQ | -0.25
HMREVTVGSAVRLKKGAKTYSGGSLASFVYERNHQVTQLSGDRAVISFKGTVVAAVHKDDLIL | -0.916
HMNLDPHVVGHRLRDLRTRRDLTLADVAAETDISVSTLSRLESGSRRATLELLVPLARTYRVTLDELVDA | -0.66
HMGNKKLVLKLSKKLIKIPSFLNIYSVKLTKNGRELEINLDKSQNEAIDIINLIKKNNISFLEFDIKKR | -0.267
HMEGTEILVNIRKGMTKEEIASLLVSKGLVEDKNTFLVQTALYTSDRYPIQPGSYTLNTAQTPEEMLAVMT | 0.0128
HMIKRNPLDEIEGVGPGRKKALLHAFGSAKGVSRASVVDLVKVEGVSQALAERIHDFFHPATR | -0.113
HMKDTFHNLSEEKRERIIRAALGEFAASGYEKATLDGVVQAAGISKGGLYEYISSKEDLFRYLLEYSYD | -1.53
HMTATDRQLQLIAYTAARLMAEQGIADFNAAKRKAIQTLGLPNNAKLPGNADVEAQLRAYQRIF | -0.133
HMQTMTAGERREAILRELEQAQGPVSASALAKRFHVSRQAVVGDVAMLRALNSPIAATPRGYVLTR | -0.0845
HMSGGIVRLAVKPWGEVFVDGASRGITPPLKQLTLDAGVHRIEIRNPAGPSWTKDVDVVAGQPTTVSHRF | 0.0289
HMGLQRLTVSPEDAGVRIDKYLAEQLPDITRSYLQKLLKDGSVQMNGKPVKASTKTAVGAVIALTIPEP | 0.0689
HMKSVTVIFKESGNVVSSKKLSVVATAQYVDKSRITAPAGYRIATTDSKLKISENNTVTVEVK | 0.212
HMEITTEDIAAQVASWIVRLSEDLTSTDRAALQIEFEQWQQTDSRRAEIAHKMLSLIGQAEQLRKT | -0.207
HMKMHKIIKERRLALNFTQEQVAKYLGVTTPAVNKWEKGISYPDISLLPALARLLDTDLNTLLSF | -2.1
HMAETLLWADAAQEGLNRIVAAQPILVRISAAKRLRDASEQAAKAAGVSTVEIGHVQHASESLQFGDA | 0.165
HMYKSSRASKSEVNKFLKFIIQSLDKRGFLQPGHKRQSMIRNIENIFYRTNLSDQEIRILLGIFSTLNK | -0.62
HMAQASEPMLALIRLKWWEEQINSPVKGDSLPLLSQLNSHISAGYLSRSQVTSLIQRWQDYA | -0.787
HMPPAPGHDLTEREREVLRLLVEGLSNQEISDRLVISQSTVKNHVSSVLSKLDAANRAEAVALALKNQL | 0.00346
HMAGDVVVEVVGKVRDPQVVTLPKGSRVQDALEAAGGVKPGVNTTDQNLARLLVDGEQIRIGLSS | 0.0918
HMSNWYGTVVKIQPRPNAQAADTAVVKLLDGSEHRFPVWADHLTTIEVGSRLKKLSGGWDPVLMDPEETF | -0.454
HMESPVNTLPEDQRAWYKALPPELSTKTAVEAGAGVGVSERTVKRLLSNQTFFINLQRGNYRKRH | 0.172
HMLNKRQAEILAEVSRLKEITPSELYKLQPNVSSRTLRRDMDVLVNKGLVSQDGSTKSTKYTYL | 0.23
HMNPLLSAYLAEVERGLQGLTAGRRRLVLRELEAHLLDEAEARGLLTEEDMRALLMEKEPPERLAQEIAQ | -0.0936
